Reference: paper doi:10.1101/2022.06.19.496727

Target: 8His-Smc3 with the J-head reporter cysteine (wild type trimer) (S. cerevisiae) (UniProt P47037)
Experiment: cross-linking

percent of molecules cross-linked: 70%
Substance: Smc1 with the J-head reporter cysteine (wild type trimer) (from UniProt P32908 1-1225) (natural protein)
